Data: patent publication US20140179896A1 (published 2014)
Where a chain is given by its changes, count along the chain named. Names may count otherwise.

B1: M5FL (designed binder)
chain: VSDVPRDLEVVAATPTSLLISWRHPHFPTRYYRITYGETGGNSPVQEFTVPLQPPLATISGLKPGVDYTITGYAVTKERNGRELFTPISINYRT
notes: 10Fn3 clone with WT N-terminus; Tail and tag not included here; also called clone M5FL
B2: 159(Q8L) (designed binder)
chain: B1 chain with L56A, K77M, E78A, R79Q, N80S, R82H
notes: clone 159 with Q8 corrected to the wild type L; His6-tagged E. coli protein in BIAcore, tag left out; also called Clone 159 (Q8L)
B3: E26 (designed binder)
chain: EVVAATPTSLLISWRHPHFPTRYYRITYGETGGNSPVQEFTVPLQPPTATISGLKPGVDYTITGYAVTVERNGRELMTPISINYRT
notes: Del 1-8 10Fn3 clone; Flag-tagged in vitro translated protein in the radioactive assay, His6-tagged E. coli protein in BIAcore and cell assays; tags left out
B4: E18 (designed binder)
chain: B3 chain with M77N
notes: as for B3
B5: E19 (designed binder)
chain: B3 chain with E75H
notes: as for B3
B6: E29 (designed binder)
chain: B3 chain with E75V
notes: as for B3
B7: M5FL (designed binder)
chain: B1 chain
notes: extension and tag left out
B8: VR28 (designed binder)
chain: B1 chain with L56T, K77V, E78A, R79Q, G81D, R82H, F85I
notes: scaffold said to be unchanged from wild type 10Fn3; Flag-tagged in vitro translated protein in the radioactive assay, His6-tagged E. coli protein in BIAcore; tags left out; also called VR28 (I69T)
B9: CT-01 (designed binder)
chain: B3 chain with G64V, V69D, E70G, E75L, M77S, T78I
notes: Core form of CT-01

Target: full-length human KDR on cells (human, UniProt P35968 20-1356)
Test: cell-based or functional assay

Row | HUVEC proliferation assay: decrease in proliferation | Binder
1 | ~40% | B1

Target: mouse vascular endothelial growth factor receptor-2 Fc chimera (Flk-1-Fc) (mouse) (UniProt P35918)
Test: assay not given

Chain of mouse vascular endothelial growth factor receptor-2 Fc chimera (Flk-1-Fc) (mouse) (P35918 20-762, change not shown): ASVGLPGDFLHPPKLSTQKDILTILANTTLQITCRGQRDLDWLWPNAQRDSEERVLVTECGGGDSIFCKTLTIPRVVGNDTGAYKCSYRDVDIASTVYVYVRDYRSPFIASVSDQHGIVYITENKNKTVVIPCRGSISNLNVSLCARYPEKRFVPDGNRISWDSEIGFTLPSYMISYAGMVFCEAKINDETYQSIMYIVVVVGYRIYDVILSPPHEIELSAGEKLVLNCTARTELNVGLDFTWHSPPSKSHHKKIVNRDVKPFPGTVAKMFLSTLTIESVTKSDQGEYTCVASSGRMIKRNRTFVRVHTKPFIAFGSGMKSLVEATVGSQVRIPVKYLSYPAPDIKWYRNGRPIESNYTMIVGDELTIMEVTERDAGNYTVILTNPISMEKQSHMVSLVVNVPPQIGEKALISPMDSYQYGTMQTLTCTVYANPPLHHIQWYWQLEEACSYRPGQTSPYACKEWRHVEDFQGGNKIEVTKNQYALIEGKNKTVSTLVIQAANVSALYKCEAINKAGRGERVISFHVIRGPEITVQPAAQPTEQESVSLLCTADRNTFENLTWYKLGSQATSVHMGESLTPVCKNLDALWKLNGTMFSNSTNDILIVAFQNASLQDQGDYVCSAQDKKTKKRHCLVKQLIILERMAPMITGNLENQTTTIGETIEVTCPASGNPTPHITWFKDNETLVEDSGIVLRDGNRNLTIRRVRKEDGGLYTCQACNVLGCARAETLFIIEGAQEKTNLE

Row | Kd | Binder
2 | > 3000 nM | B2

Target: T1, murine VEGFR-2/EpoR chimera (flk-1/EpoR fusion, pmKE2) on cells (mouse; human, UniProt P35918 20-762; P19235 251-508, limits assumed)
Test: cell-based or functional assay

T1 sequence (P35918 other isoform, or with tags, fused parts or gaps mutant limits assumed, form in doubt): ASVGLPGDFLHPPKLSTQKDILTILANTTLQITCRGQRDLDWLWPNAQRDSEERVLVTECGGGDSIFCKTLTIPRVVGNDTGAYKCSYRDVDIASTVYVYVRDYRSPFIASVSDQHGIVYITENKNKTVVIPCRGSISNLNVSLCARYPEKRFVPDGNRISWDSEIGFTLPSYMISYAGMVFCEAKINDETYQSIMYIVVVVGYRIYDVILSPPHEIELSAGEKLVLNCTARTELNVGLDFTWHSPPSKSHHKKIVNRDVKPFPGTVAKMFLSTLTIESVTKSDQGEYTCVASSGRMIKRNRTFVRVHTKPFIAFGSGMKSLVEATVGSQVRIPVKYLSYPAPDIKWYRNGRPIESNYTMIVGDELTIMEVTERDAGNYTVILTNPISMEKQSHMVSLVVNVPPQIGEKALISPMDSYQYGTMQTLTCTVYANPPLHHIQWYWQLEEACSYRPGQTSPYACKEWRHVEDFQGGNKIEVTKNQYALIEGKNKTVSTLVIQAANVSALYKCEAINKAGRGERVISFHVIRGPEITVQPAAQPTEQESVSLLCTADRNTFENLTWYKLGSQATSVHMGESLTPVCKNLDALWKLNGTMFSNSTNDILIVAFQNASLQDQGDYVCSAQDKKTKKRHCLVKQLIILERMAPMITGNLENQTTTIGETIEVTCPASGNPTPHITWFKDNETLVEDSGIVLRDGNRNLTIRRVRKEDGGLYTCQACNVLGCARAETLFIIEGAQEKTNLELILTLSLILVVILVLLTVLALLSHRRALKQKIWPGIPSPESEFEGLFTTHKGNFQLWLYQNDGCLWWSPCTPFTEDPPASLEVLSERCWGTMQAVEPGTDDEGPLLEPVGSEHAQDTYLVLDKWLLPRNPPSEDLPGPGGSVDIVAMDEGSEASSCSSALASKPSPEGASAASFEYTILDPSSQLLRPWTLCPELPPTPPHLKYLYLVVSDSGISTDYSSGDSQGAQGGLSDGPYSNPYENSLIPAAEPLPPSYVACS

Row | Inhibition of VEGF-induced proliferation, Ba/F3-Flk (IC50, nM) | Binder
3 | 5.3 nM | B3
4 | 2.4 nM | B4
5 | 5.8 nM | B5
6 | 4.7 nM | B6
7 | 5.1 nM | B7

Target: human KDR/EpoR fusion (phKE8) on Ba/F3 cells (human, UniProt P35968 20-764; P19235 251-508, limits assumed)
Test: cell-based or functional assay

Row | Inhibition of VEGF-induced proliferation, Ba/F3-KDR (IC50, nM) | Binder
8 | 3.2 nM | B3
9 | 5.4 nM | B4
10 | 12.3 nM | B5
11 | 10 nM | B6
12 | 3.9 nM | B7

Target: T2, full-length human KDR on cells (human, UniProt P35968 20-1356)
Test: cell-based or functional assay

Row | Inhibition of VEGF-induced proliferation of HUVEC cells (IC50, nM) | Binder
13 | 14 nM | B3
14 | 12.8 nM | B4
15 | 11.8 nM | B5
16 | 8.4 nM | B6
17 | 8.5 nM | B7

Target: T3, human vascular endothelial growth factor receptor-2 Fc chimera (KDR-Fc) (human, UniProt P35968 20-764)
T3 construct: range 1-764; purchased from R&D Systems; also called hKDR; human VEGF-R2-Fc; not shown: human IgG1 Fc
Test: BIAcore, target-Fc immobilized
Procedure: (§1) The binding kinetics of fibronectin-based scaffold proteins binding proteins to the target was measured using BIAcore 2000 biosensor (Pharmacia Biosensor). Human and mouse VEGF-R2-Fc fusions were immobilized onto a CM5 sensor chip and soluble binding proteins were injected at concentrations ranging from 0 to 100 nM in buffer 0 (10 mM HEPES, 150 mM NaCl, 0.005% Tween 20, pH 7.4). Sensorgrams were obtained at each concentration and were evaluated using a program, BIA Evaluation 2.0 (BIAcore), to determine the rate constants kₐ (kₒₙ) and kd (koff.) The affinity constant, KD was calculated from the ratio of rate constants […].

Row | Kd | koff | kon | Binder
18 | 0.51 nM | 5.8e-05 s⁻¹ | 110000 M⁻¹ s⁻¹ | B3
19 | 0.46 nM | 0.000121 s⁻¹ | 260000 M⁻¹ s⁻¹ | B4
20 | 0.06 nM | 1.7e-05 s⁻¹ | 300000 M⁻¹ s⁻¹ | B5
21 | 0.19 nM | 7e-05 s⁻¹ | 360000 M⁻¹ s⁻¹ | B6
22 | 13 nM | 0.00034 s⁻¹ | 30000 M⁻¹ s⁻¹ | B8
23 | 0.89 nM | 9.2e-05 s⁻¹ | 100000 M⁻¹ s⁻¹ | B7
24 | 2 nM | 0.0001 s⁻¹ | 50000 M⁻¹ s⁻¹ | B2

Target: T4, mouse vascular endothelial growth factor receptor-2 Fc chimera (Flk-1-Fc) (mouse, UniProt P35918 20-762)
T4 construct: purchased from R&D Systems; also called mouse VEGF-R2-Fc; not shown: Fc part of the purchased chimera
Test: BIAcore, target-Fc immobilized
Procedure: as §1
T4 sequence (P35918 20-762, change not shown): as the sequence (P35918 20-762, change not shown) above

Row | Kd | koff | kon | Binder
25 | 2.14 nM | 0.000477 s⁻¹ | 220000 M⁻¹ s⁻¹ | B3
26 | 0.33 nM | 0.000195 s⁻¹ | 600000 M⁻¹ s⁻¹ | B4
27 | 0.34 nM | 0.000223 s⁻¹ | 660000 M⁻¹ s⁻¹ | B5
28 | 0.37 nM | 0.000288 s⁻¹ | 790000 M⁻¹ s⁻¹ | B6
29 | 2.1 nM | 0.000582 s⁻¹ | 280000 M⁻¹ s⁻¹ | B7

Target: T5, mouse vascular endothelial growth factor receptor-2 Fc chimera (Flk-1-Fc) (mouse, UniProt P35918 20-762)
T5 construct: Purchased from R&D Systems; also called mouse VEGF-R2; not shown: Fc part of the purchased chimera
Test: Kd for Flk-1 against clone 159Q(8)L
T5 sequence (P35918 20-762, change not shown): as above

Row | fold improvement over the original clone (159Q(8)L) | Binder
30 | 1000 fold | B1

Target: T3, human vascular endothelial growth …
Test: radioactive equilibrium binding
Procedure: To prepare ³⁵S-labeled binding proteins for analysis, mRNA was prepared as described above for RNA-protein fusion production but the linker ligation step was omitted. The mRNA was expressed using rabbit reticulocyte lysate translation kit (Ambion) in the presence of ³⁵S-labeled Met at 30° C. for 1 hour. Expressed protein was purified on M2-agarose Flag beads (Sigma) as described above. This procedure produced the encoded protein without the nucleic acid tail. […] of the reaction mixture and elution were dried onto a LumaPlate-96 (Packard) and the amount of ³⁵S on the plate was measured using a TopCount NXT instrument (Packard). The amount of fibronectin-based scaffold protein bound to the target was estimated as a percent of radioactivity eluted from Protein A magnetic beads compare to radioactivity in the reaction mixture. Nonspecific binding of fibronectin-based scaffold proteins to the beads was determined by measuring binding in the absence of KDR-Fc and represented less than 1-2% of the input. […] Data was analyzed using the GraphPad Prizm software (GraphPad Software, Inc, San Diego, Calif.), fitted using a one site, non-linear binding equation.

Row | Kd | Binder
31 | 11 nM | B8

Target: T2, full-length human KDR on cells
Test: flow cytometry on CHO KDR cells
Procedure: (§2) The functionality of KDR and Flk-1 binding molecules in a cell culture model system was evaluated with E. coli produced binding molecules.
(§3) Binding of fibronectin-based scaffold protein to cell-surface KDR and Flk-1 was analyzed simultaneously on VEGF-R2-expressing and control cells by flow cytometry. CHO-pcDNA3 cells (control) were released from their dishes with trypsin-EDTA, washed in Dulbecco's PBS without calcium and magnesium (D-PBS⁻; Invitrogen), and stained for 30 minutes at 37° C. with 1.5 μM CMTMR (5-(and -6)-(((4-chloromethyl)benzoyl)amino)-tetramethylrhodamine) (Molecular Probes). The cells were washed in D-PBS⁻ and incubated for a further 30 minutes at 37° C., and then resuspended in blocking buffer (D-PBS⁻/10% fetal bovine serum) on ice. CHO-KDR or CHO-Flk cells were treated identically except that CMTMR was omitted. 75,000 of CMTMR-stained CHO-pcDNA3 cells were mixed with an equal number of unstained CHO-KDR or CHO-Flk cells in each well of a V-bottom 96-well plate. All antibodies and fibronectin-based scaffold proteins were diluted in 25 μl/well of blocking buffer, and each treatment was conducted for 1 hour at 4° C. Cell mixtures were stained with His₆-tagged (SEQ ID NO: 235) fibronectin-based scaffold proteins, washed twice with cold D-PBS⁻, and then treated with 2.5 μg/ml anti-His₆ (SEQ ID NO: 235) MAb (R&D Systems), washed, and stained with 4 μg/ml Alexa Fluor 488-conjugated anti-mouse antibody (Molecular Probes). For cells treated with an anti-KDR mouse monoclonal antibody (Accurate Chemical, Westbury, N.Y.) or an anti-flk-1 goat polyclonal antibody (R&D Systems), the anti-His₆ (SEQ ID NO: 235) step was omitted, and antibody binding was detected with the species-appropriate Alexa Fluor 488 conjugated secondary antibody (Molecular Probes). Following staining, cells were resuspended in 200 μl/well D-PBS⁻/1% FBS/1 μg/ml 7-aminoactinomycin D (7-AAD; Molecular Probes) and analyzed by flow cytometry on a FACSCalibur (Becton Dickinson, San Jose, Calif.) equipped with a […].

Row | EC50 | Binder
32 | 2.6 nM | B3
33 | 4.2 nM | B4
34 | 7.6 nM | B5
35 | 2.3 nM | B6

Target: T1, murine VEGFR-2/EpoR chimera (flk-1/EpoR …)
Test: flow cytometry on CHO Flk-1 cells
Procedure: as §2, §3

Row | EC50 | Binder
36 | 1.3 nM | B3
37 | 0.9 nM | B4
38 | 5.3 nM | B5
39 | 0.6 nM | B6

Target: T3, human vascular endothelial growth …
Test: radioactive equilibrium binding assay
Procedure: (§4) To prepare ³⁵S-labeled binding proteins for analysis, mRNA was prepared as described above for RNA-protein fusion production but the linker ligation step was omitted. The mRNA was expressed using rabbit reticulocyte lysate translation kit (Ambion) in the presence of ³⁵S-labeled Met at 30° C. for 1 hour. Expressed protein was purified on M2-agarose Flag beads (Sigma) as described above. This procedure produced the encoded protein without the nucleic acid tail. In a direct binding assay, VEGF-R2-Fc fusions in concentrations ranging from 0 to 200 nM were added to a constant concentration of the purified protein (0.2 or 0.5 nM) and incubated at 30° C. for 1 hour in buffer B. The receptor-binder complexes were captured using Protein A magnetic beads for another 10 minutes at room temperature using a Kingfisher™ The beads were washed with six reaction volumes of buffer B. The protein was eluted from the beads with 100 μL of 0.1 M KOH. […] of the reaction mixture and elution were dried onto a LumaPlate-96 (Packard) and the amount of ³⁵S on the plate was measured using a TopCount NXT instrument (Packard). The amount of fibronectin-based scaffold protein bound to the target was estimated as a percent of radioactivity eluted from Protein A magnetic beads compare to radioactivity in the reaction mixture. Nonspecific binding of fibronectin-based scaffold proteins to the beads was determined by measuring binding in the absence of KDR-Fc and represented less than 1-2% of the input. Specific binding was obtained through subtraction of nonspecific binding from total binding. Data was analyzed using the GraphPad Prizm software (GraphPad Software, Inc, San Diego, Calif.), fitted using a one site, non-linear binding equation.

Row | Kd | Binder
40 | < 1.7 nM | B3
41 | < 1.2 nM | B4
42 | < 1.3 nM | B5
43 | < 1.5 nM | B6
44 | 11 nM | B8

Target: T4, mouse vascular endothelial growth …
Test: radioactive equilibrium binding assay
Procedure: as §4

Row | Kd | binding result | Binder
45 | 2 nM |  | B3
46 | < 0.5 nM |  | B4
47 | < 0.7 nM |  | B5
48 | < 0.9 nM |  | B6
49 |  | no binding (tested: 100 nM) | B8

Target: T3, human vascular endothelial growth …
Test: radioactive equilibrium binding, 1 nM KDR-Fc
Procedure, shortened: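 ³⁵S-Met-labeled binder protein, made by reticulocyte-lysate translation and Flag-purified, held at 0.2 or 0.5 nM with receptor-Fc (0–200 nM) for 1 h at 30° C in buffer B. Complexes captured on Protein A beads, washed, KOH-eluted. Bound signal given as % of input radioactivity minus bead-only background; one-site fit.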

Row | Binding to 1 nM KDR, % | Binder
50 | 3% | B8

Target: T3, human vascular endothelial growth …
Test: radioactive equilibrium binding assay, KDR-Fc
Procedure: as §4

Row | Kd | Binder
51 | 11 nM | B8

Target: T5, mouse vascular endothelial growth …
Test: KD against mouse Flk-1 by the BIAcore binding assay; value not given
Procedure: Following the methodologies described in the preceding Examples, additional ¹⁰Fn3-based KDR binding proteins were generated. As described for the development of the M5FL protein in Example 5, above, proteins were tested for KD against human KDR and mouse Flk-1 using the BIAcore binding assay and for IC50 in a Ba/F3 assay.
as §1

Row | binding result | Binder
52 | binds | B9
